Results taken from the supplement of paper PMC10126150.
± gives the standard deviation of the averaged measurements.

The sequences below were run on ATP (assay: switch fluorescence ratio, 500 uM ATP over buffer (Cy3 cluster intensity, sum of 5 cycles each) (fold (ratio)); higher = stronger signal-on switching upon ATP binding; sequences stand for … in TCGTCGGCAGCGTCAGATGTGTATAAGAGACAGTTTTTTTTTTTTTTTTTTTTTTTTT…TC). Details: aptamer strand: ATP DNA aptamer (quencher-CACCTGGGGGAGTATTGCGGAGGAAGG + anchor), 100 nM annealed; ATP concentration: 500 uM.
Summary of the method: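 Clusters with intensities outside 100-1000 RFU were excluded. The remaining Cy3-labelled switching-strand clusters on a modified Illumina MiSeq flow-cell had been annealed to 100 nM quencher-labelled ATP aptamer and imaged in selection buffer, then after 15 min with 500 uM ATP at 22 °C, for five cycles separated by NaOH stripping and re-annealing. The fluorescence ratio, averaged per switch-domain sequence, is each cluster's summed target-cycle Cy3 intensity over its summed buffer-cycle Cy3 intensity.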
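Note: ATP exposure 15 min at 22 °C before imaging.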

Row | Sequence | switch fluorescence ratio
1 | AGATGTCCTT | 1.02 ± 0.037
2 | TATCGTACAT | 1.11 ± 0.023
3 | TGGAATGCGG | 0.99792 ± 0.00061
4 | CGGGAGGGAG | 1 ± 0.05
5 | CGATTACTCC | 2.82 ± 0.089
6 | TTAAATGAAA | 1.02 ± 0.013
7 | TCTGAGCGGA | 1.14 ± 0.13
8 | TAAAAAAAAG | 1.01 ± 0.039
9 | TCAAGGCAA | 1.8 ± 0.037
10 | TATTTCCCGT | 1.06 ± 0.065
11 | TGATTAAGCA | 0.999 ± 0.033
12 | GGTCTTGTTT | 0.9891 ± 0.0078
13 | AGTTATGTTA | 1 ± 0.022
14 | TCGGGGCGGC | 1.02 ± 0.046
15 | TGGGCGGTA | 0.963 ± 0.026
16 | GGGTGTTCGT | 1.004 ± 0.0028
17 | GAGGGTGCAG | 1.004 ± 0.0043
18 | TTGGTGACGT | 1.03 ± 0.022
19 | AACGATAGCA | 1.08 ± 0.016
20 | AATAGGGATT | 0.984 ± 0.019
21 | GAGCACGTAT | 1.03 ± 0.063
22 | AATATTACTA | 1.007 ± 0.0041
23 | ATAAAAGAAT | 0.998 ± 0.0085
24 | TGGGATAGGT | 1.01 ± 0.06
25 | CGGGAAATGG | 1.007 ± 0.0064

Row | Sequence | switch fluorescence ratio
26 | TGTCTGCTTT | 0.997 ± 0.043
27 | GTAGGGGGGA | 0.987 ± 0.04
28 | CGAGAAGTTC | 1.02 ± 0.091
29 | CTTGTGTGTC | 0.999 ± 0.015
30 | GGGGGTGCTG | 0.993 ± 0.025
31 | ATCAATTGTC | 1.07 ± 0.025
32 | CAGGTAGGCG | 0.984 ± 0.016
33 | CTTCTAAGTC | 1.004 ± 0.0097
34 | TTTCAAATCA | 1.01 ± 0.037
35 | TGGTACCTTG | 1.19 ± 0.26
36 | TACTTGGCTT | 1.02 ± 0.031
37 | ACGTTGTTTT | 0.984 ± 0.011
38 | CCTGATAATT | 1.02 ± 0.02
39 | TGGTGGCCGC | 0.982 ± 0.032
40 | AAGGCGGGGA | 1.017 ± 0.0051
41 | GTTTGTTTGT | 0.995 ± 0.019
42 | TTTTATGGAT | 1.01 ± 0.013
43 | GGGGTAAATC | 1.01 ± 0.024
44 | TGAGAATTTA | 0.9935 ± 0.0019
45 | CGAAATCGGG | 1.02 ± 0.018
46 | ATAGCAGGTG | 2.9 ± 1.1
47 | TATTAACCTG | 1.03 ± 0.022
48 | AAGCACGTTG | 1.05 ± 0.027
49 | CGAAGGTTAG | 0.987 ± 0.024
50 | GGGGGCTCTG | 0.999 ± 0.028

Row | Sequence | switch fluorescence ratio
51 | TAGATATGTA | 1.02 ± 0.043
52 | GGGGGCTGTT | 1 ± 0.014
53 | TCCAGACAGT | 0.984 ± 0.026
54 | TGGTGTTGGA | 0.9906 ± 0.0068
55 | AATGGTTTGT | 0.999 ± 0.025
56 | AGTAGTATCT | 0.981 ± 0.03
57 | GGGAGAAGGG | 0.95 ± 0.023
58 | TTAAACTTTT | 1.04 ± 0.031
59 | TATAAATTTG | 1.01 ± 0.016
60 | CAGGGATTGA | 0.998 ± 0.0049
61 | GCGAGGGGCA | 0.992 ± 0.025
62 | GGGGGGCCGT | 0.957 ± 0.025
63 | TCCTGATTGA | 0.984 ± 0.063
64 | TGGAAAGGGA | 1.01 ± 0.044
65 | TTGCTAAATG | 1 ± 0.013
66 | AGATATCTA | 0.985 ± 0.023
67 | CCAGGGTGGG | 1.03 ± 0.12
68 | AGCAGGGGTA | 1.17 ± 0.26
69 | TTTTGACCGC | 1.09 ± 0.061
70 | GTGAAAGCGT | 0.961 ± 0.016
71 | TGGATGTTAT | 1.02 ± 0.092
72 | CTTCGGTTCT | 1.02 ± 0.028
73 | ACGACCGACA | 1.95 ± 0.29
74 | CGTAGACTGC | 1.06 ± 0.024
75 | CGTGATCAGC | 1.017 ± 0.0098

Row | Sequence | switch fluorescence ratio
76 | TTGAAAGTAT | 1.03 ± 0.048
77 | CAGGAGGAAT | 1.242 ± 0.0098
78 | CGAACCGGCG | 1.03 ± 0.017
79 | CCCTAGTGTG | 2.97 ± 2.6
80 | GTAATAAGGT | 1.02 ± 0.023
81 | GGGGTGGGTA | 0.998 ± 0.028
82 | TTTTCGGTGA | 0.9713 ± 0.0057
83 | TATGGTGACG | 1 ± 0.12
84 | GCGGGTCGGG | 0.969 ± 0.054
85 | GTCAGTGGCT | 0.998 ± 0.018
86 | GGTGGGATGA | 0.965 ± 0.015
87 | AGGGCTGCAT | 0.9874 ± 0.0035
88 | GGGGCTTATT | 0.975 ± 0.029
89 | GGGAAATTAT | 0.9917 ± 0.0045
90 | GGGCCCGGTT | 1.005 ± 0.0068
91 | TTTATAGTGT | 0.9894 ± 0.0097
92 | AGAATGTGGG | 0.996 ± 0.034
93 | TATGTTTTGA | 0.994 ± 0.033
94 | TATTCGAGGC | 1.06 ± 0.052
95 | AATTTTTGAT | 0.979 ± 0.037
96 | GAGGATGGGT | 0.933 ± 0.024
97 | ACTCTAGTAC | 1.31 ± 0.034
98 | GTTTGGGTTT | 0.992 ± 0.031
99 | ATTAATTGTT | 0.993 ± 0.012
100 | CCGGGGCACT | 1.34 ± 0.26
